Results as given in the supplement of paper PMC5998384.

Experiments:
HeLa Kyoto [1] = assay: thermal stability score vs G1/S (z-score of summed log2 fold changes over temperatures); higher = more thermally stable than in G1/S
HeLa Kyoto [2] = assay: solubility in G1/S (NP-40 vs SDS abundance) (log2 ratio); higher = more soluble; conditions: cell cycle stage: G1/S
HeLa Kyoto [3] = assay: solubility change mitosis vs G1/S (difference of NP-40 vs SDS log2 ratios) (log2 ratio difference); higher = more soluble in mitosis
HeLa Kyoto [4] = assay: melting temperature (median over replicates), in situ; higher = more thermally stable
[5] = cell cycle stage: early G1 (4.5 h after nocodazole release)
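Wherever melting temperature (median over replicates), in situ is given: HeLa Kyoto cells synchronized by double thymidine or nocodazole block, proteins quantified by TMT10plex mass spectrometry, three independent biological replicates.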
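Wherever solubility change mitosis vs G1/S (difference of NP-40 vs SDS log2 ratios) is given: synchronized HeLa Kyoto cells (double thymidine block for G1/S, nocodazole release for mitosis), protein amounts in NP-40 versus SDS lysates quantified by mass spectrometry, three biological replicates.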
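Wherever solubility in G1/S (NP-40 vs SDS abundance) is given: HeLa Kyoto cells arrested at G1/S by double thymidine block, proteins quantified by TMT10plex mass spectrometry in mild NP-40 versus SDS extracts, three biological replicates.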
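Wherever thermal stability score vs G1/S (z-score of summed log2 fold changes over temperatures) is given: synchronized HeLa Kyoto cells, proteins quantified by TMT10plex mass spectrometry, three biological replicates, mitosis taken 0.5 h after nocodazole release, G1/S directly after double thymidine block.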

Row | Sequence | thermal stability score (HeLa Kyoto [1]; [5]) | thermal stability score (HeLa Kyoto [1]; cell cycle stage: mitosis) | solubility in G1/S (log2) (HeLa Kyoto [2]) | solubility change mitosis (log2) (HeLa Kyoto [3]) | melting temperature (HeLa Kyoto [4]; cell cycle stage: G1/S) | melting temperature (HeLa Kyoto [4]; cell cycle stage: mitosis)
1 | MGEIKVSPDYNWFRGTVPLKKIIVDDDDSKIWSLYDAGPRSIRCPLIFLPPVSGTADVFFRQILALTGWGYRVIALQYPVYWDHLEFCDGFRKLLDHLQLDKVHLFGASLGGFLAQKFAEYTHKSPRVHSLILCNSFSDTSIFNQTWTANSFWLMPAFMLKKIVLGNFSSGPVDPMMADAIDFMVDRLESLGQSELASRLTLNCQNSYVEPHKIRDIPVTIMDVFDQSALSTEAKEEMYKLYPNARRAHLKTGGNFPYLCRSAEVNLYVQIHLLQFHGTKYAAIDPSMVSAEELEVQKGSLGISQEEQ [SPG21] | 0.11 | 0.524 | 0.00691 | -0.157 | 49.5 °C | 49 °C
2 | MGELPLDINIQEPRWDQSTFLGRARHFFTVTDPRNLLLSGAQLEASRNIVQNYRAGVVTPGITEDQLWRAKYVYDSAFHPDTGEKVVLIGRMSAQVPMNMTITGCMLTFYRKTPTVVFWQWVNQSFNAIVNYSNRSGDTPITVRQLGTAYVSATTGAVATALGLKSLTKHLPPLVGRFVPFAAVAAANCINIPLMRQRELQVGIPVADEAGQRLGYSVTAAKQGIFQVVISRICMAIPAMAIPPLIMDTLEKKDFLKRRPWLGAPLQVGLVGFCLVFATPLCCALFPQKSSIHISNLEPELRAQIHEQNPSVEVVYYNKGL [SFXN3] | -0.249 | -0.897 | 0.286 | -0.0789 | 53.6 °C | 53.5 °C
3 | MGETMSKRLKLHLGGEAEMEERAFVNPFPDYEAAAGALLASGAAEETGCVRPPATTDEPGLPFHQDGKIIHNFIRRIQTKIKDLLQQMEEGLKTADPHDCSAYTGWTGIALLYLQLYRVTCDQTYLLRSLDYVKRTLRNLNGRRVTFLCGDAGPLAVGAVIYHKLRSDCESQECVTKLLQLQRSVVCQESDLPDELLYGRAGYLYALLYLNTEIGPGTVCESAIKEVVNAIIESGKTLSREERKTERCPLLYQWHRKQYVGAAHGMAGIYYMLMQPAAKVDQETLTEMVKPSIDYVRHKKFRSGNYPSSLSNETDRLVHWCHGAPGVIHMLMQAYKVFKEEKYLKEAMECSDVIWQRGLLRKGYGICHGTAGNGYSFLSLYRLTQDKKYLYRACKFAEWCLDYGAHGCRIPDRPYSLFEGMAGAIHFLSDVLGPETSRFPAFELDSSKRD [LANCL2] | -0.346 | -0.592 | -0.0171 | -0.119 | 57.7 °C | 55.4 °C
4 | MGGCTVKPQLLLLALVLHPWNPCLGADSEKPSSIPTDKLLVITVATKESDGFHRFMQSAKYFNYTVKVLGQGEEWRGGDGINSIGGGQKVRLMKEVMEHYADQDDLVVMFTECFDVIFAGGPEEVLKKFQKANHKVVFAADGILWPDKRLADKYPVVHIGKRYLNSGGFIGYAPYVNRIVQQWNLQDNDDDQLFYTKVYIDPLKREAINITLDHKCKIFQTLNGAVDEVVLKFENGKARAKNTFYETLPVAINGNGPTKILLNYFGNYVPNSWTQDNGCTLCEFDTVDLSAVDVHPNVSIGVFIEQPTPFLPRFLDILLTLDYPKEALKLFIHNKEVYHEKDIKVFFDKAKHEIKTIKIVGPEENLSQAEARNMGMDFCRQDEKCDYYFSVDADVVLTNPRTLKILIEQNRKIIAPLVTRHGKLWSNFWGALSPDGYYARSEDYVDIVQGNRVGVWNVPYMANVYLIKGKTLRSEMNERNYFVRDKLDPDMALCRNAREMGVFMYISNRHEFGRLLSTANYNTSHYNNDLWQIFENPVDWKEKYINRDYSKIFTENIVEQPCPDVFWFPIFSEKACDELVEEMEHYGKWSGGKHHDSRISGGYENVPTDDIHMKQVDLENVWLHFIREFIAPVTLKVFAGYYTKGFALLNFVVKYSPERQRSLRPHHDASTFTINIALNNVGEDFQGGGCKFLRYNCSIESPRKGWSFMHPGRLTHLHEGLPVKNGTRYIAVSFIDP [PLOD2] | 3.26 | 4.23 | 0.13 | -0.123 | 53.9 °C | 54.6 °C
5 | MGGRVFLAFCVWLTLPGAETQDSRGCARWCPQNSSCVNATACRCNPGFSSFSEIITTPTETCDDINECATPSKVSCGKFSDCWNTEGSYDCVCSPGYEPVSGAKTFKNESENTCQDVDECQQNPRLCKSYGTCVNTLGSYTCQCLPGFKFIPEDPKVCTDVNECTSGQNPCHSSTHCLNNVGSYQCRCRPGWQPIPGSPNGPNNTVCEDVDECSSGQHQCDSSTVCFNTVGSYSCRCRPGWKPRHGIPNNQKDTVCEDMTFSTWTPPPGVHSQTLSRFFDKVQDLGRDSKTSSAEVTIQNVIKLVDELMEAPGDVEALAPPVRHLIATQLLSNLEDIMRILAKSLPKGPFTYISPSNTELTLMIQERGDKNVTMGQSSARMKLNWAVAAGAEDPGPAVAGILSIQNMTTLLANASLNLHSKKQAELEEIYESSIRGVQLRRLSAVNSIFLSHNNTKELNSPILFAFSHLESSDGEAGRDPPAKDVMPGPRQELLCAFWKSDSDRGGHWATEGCQVLGSKNGSTTCQCSHLSSFAILMAHYDVEDWKLTLITRVGLALSLFCLLLCILTFLLVRPIQGSRTTIHLHLCICLFVGSTIFLAGIENEGGQVGLRCRLVAGLLHYCFLAAFCWMSLEGLELYFLVVRVFQGQGLSTRWLCLIGYGVPLLIVGVSAAIYSKGYGRPRYCWLDFEQGFLWSFLGPVTFIILCNAVIFVTTVWKLTQKFSEINPDMKKLKKARALTITAIAQLFLLGCTWVFGLFIFDDRSLVLTYVFTILNCLQGAFLYLLHCLLNKKVREEYRKWACLVAGGSKYSEFTSTTSGTGHNQTRALRASESGI [CD97] | 0.176 | -0.537 | 0.257 | -0.171 | 59.6 °C | 58.4 °C
